This is an account of results in article PMC2959089, “The intriguing Cyclophilin A-HIV-1 Vpr interaction: prolyl cis/trans isomerisation catalysis and specific binding” (BMC Structural Biology, 2010).

B1: synthetic HIV-1 Vpr peptide sVpr^30-40 (peptide)
peptide: AVRHFPRIWLH
notes: source: synthetic peptide
B2: synthetic HIV-1 Vpr peptide sVpr^21-40 (peptide)
peptide: ELLEELKSEAVRHFPRIWLH
notes: source: synthetic peptide
B3: synthetic HIV-1 Vpr peptide sVpr^25-40 (peptide)
peptide: ELKSEAVRHFPRIWLH
notes: source: synthetic peptide
B4: synthetic HIV-1 Vpr peptide sVpr^33-37 (peptide)
peptide: HFPRI
notes: source: synthetic peptide
B5: synthetic HIV-1 Vpr peptide sVpr^32-38 (peptide)
peptide: RHFPRIW
notes: source: synthetic peptide

T1 sequence (P62937 whole entry): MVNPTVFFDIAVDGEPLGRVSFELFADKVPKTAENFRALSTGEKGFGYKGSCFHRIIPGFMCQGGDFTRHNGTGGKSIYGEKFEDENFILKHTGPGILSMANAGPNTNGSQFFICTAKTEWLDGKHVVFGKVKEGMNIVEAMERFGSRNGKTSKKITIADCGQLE

The assay addresses T1, recombinant human Cyclophilin A (CypA) (human, UniProt P62937 1-165).
T1 construct: also called human peptidyl prolyl isomerase CypA; source: E. coli BL21(DE3), pET11c, purified (DEAE-Sepharose flow-through, MonoS cation exchange)
The assay can be described thus: SPR. The settings on record: both partners purified.
For the molecule B1, the Kd was found to be 167 µM; the “ka1 (two-state model, association)” value turned out to be 2470 M⁻¹ s⁻¹; the “ka2 (two-state model, forward rate)” value is 0.00145 s⁻¹; the “kd1 (two-state model, dissociation)” value amounted to 0.527 s⁻¹. Further, the “kd2 (two-state model, backward rate)” value came out at 0.0053 s⁻¹.
The corresponding values for B2 are 201 µM, 466 M⁻¹ s⁻¹, 0.0084 s⁻¹, 0.164 s⁻¹ and 0.011 s⁻¹.
In the same order, the values of B3 are 404 µM, 2000 M⁻¹ s⁻¹, 0.0028 s⁻¹, 0.942 s⁻¹ and 0.0173 s⁻¹.
Take B4: the Kd was 3570 µM; the “ka1 (two-state model, association)” value came to 120 M⁻¹ s⁻¹; the “ka2 (two-state model, forward rate)” value worked out at 0.00138 s⁻¹; the “kd1 (two-state model, dissociation)” value was found to be 0.66 s⁻¹. In addition, the “kd2 (two-state model, backward rate)” value was determined as 0.0025 s⁻¹.
The corresponding values for B5 are 487 µM, 924 M⁻¹ s⁻¹, 0.0011 s⁻¹, 0.67 s⁻¹ and 0.0023 s⁻¹.

In general, Kd refers to the constant that tells how readily two partners part at equilibrium.
